Several values for one entry are separate records, joined by “and”; a condition that tells them apart may be missing. Identical values can stand only once.
What was measured:
[1] = target: human mesothelin (recombinant, soluble) (human) (UniProt Q13421); assay: SPR BIAcore, parental mAb captured, mesothelin analyte
[2] = target: human mesothelin (recombinant, soluble) (human) (UniProt Q13421); assay: SPR BIAcore, captured mAb, mesothelin analyte

Chain of human mesothelin (recombinant, soluble) (human) (Q13421 other isoform, or with tags, fused parts or gaps limits assumed): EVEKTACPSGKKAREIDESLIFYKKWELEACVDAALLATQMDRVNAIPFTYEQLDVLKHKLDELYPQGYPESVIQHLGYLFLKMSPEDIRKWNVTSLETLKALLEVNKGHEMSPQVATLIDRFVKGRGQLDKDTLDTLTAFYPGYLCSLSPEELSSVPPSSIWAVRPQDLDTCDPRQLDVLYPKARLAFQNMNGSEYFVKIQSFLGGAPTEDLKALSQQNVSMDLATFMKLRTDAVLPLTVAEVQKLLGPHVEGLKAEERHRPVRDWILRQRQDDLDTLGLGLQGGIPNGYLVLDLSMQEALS

Binder	Kd [1] [pM]	koff [1] [s⁻¹]	kon [1] [M⁻¹ s⁻¹]	Kd [2]	koff [2]	kon [2]
33O11 zu (humanized anti-human mesothelin antibody) (antibody, from another filing, V domains shown) VH: EVQLVESGGGLVQPGGSLRLSCAASGISLSSDAISWVRQAPGKGLEYIGIINGGGNTYYASWAKGRFTISRHNSKNTLYLQMNSLRAEDTAVYYCARGIQHGGGNSDYYYYGMDLWGQGTLVTVSS VL: DIQMTQSPSSLSASVGDRVTITCQASQSISSVLSWYQQKPGKAPKLLIYLASTLASGVPSRFSGSGSGTDFTLTISSLQCEDIATYYCQTNYGTSSSNYGFAFGGGTKVEIKR	3400	0.00065	220000			
111B10 (rabbit-human chimeric anti-human mesothelin antibody) (antibody, from another filing, V domains shown) VH: QSVEESGGRLVTPGTPLTLTCTVSGFSLNNYAMSWVRQAPGKGLEWIGSISTGGLAFYANWAKGRFTISRTSTTVDLKMTSLTTEDTATYFCGRNGGGSYIFYYFDLWGQGTLVTVSS VL: AFELTQTPSSVEAAVGGTITIKCQASQSISSYLSWYQQKPGQPPKLLIYSASTLASGVSSRFKGSGSGTEYTLTISDLECADAATYFCQSYYDIGTSTFGGGTEVVVKR	6300	0.0039	650000			

Stronger by Kd [1], values ahead:

Kd [1] [pM]	koff [1] [s⁻¹]	kon [1] [M⁻¹ s⁻¹]	Kd [2]	koff [2]	kon [2]	Binder
1100	0.00026	240000	470 pM and 131 pM	0.000129 s⁻¹ and 0.000345 s⁻¹		201C15 (rabbit-human chimeric anti-human mesothelin antibody) (antibody, from another filing, V domains shown) VH: QSVKESGGRLVTPGTPLTLTCTVSGIDLSSYAMGWFRQAPGKGLEYIGTINIGGRVYYASWAKGRFTISRTSTTVDLKAPSLTAEDTATYFCARYYNGGSYDIWGPGTLVTVSL VL: DVVMTQTPASASEPVGGTVTIKCQASESIYRVLAWYQQKPGQPPKLLIYDTSTLASGAPSRFKGSGYGTEFTLTISGVQCEDAATYYCQGGYYADSYGIAFGGGTEVVVKR
1400	0.00049	380000	706 pM and 529 pM	0.000481 s⁻¹ and 0.000609 s⁻¹	682000 M⁻¹ s⁻¹ and 1.15e+06 M⁻¹ s⁻¹	346C6 (rabbit-human chimeric anti-human mesothelin antibody) (antibody, from another filing, V domains shown) VH: QSVEESGGRLVKPDESLTLTCTASGFSLSSYAMIWVRQAPGEGLEWIGTISTGGITYYASWAKGRFTISKTSTTVDLKITSPTTEDTATYFCARGGYAASSAYYLPYYFDLWGQGTLVTVSS VL: AAVLTQTPSPVSAAVGGTVTISCQSSQSVYNNNNLAWFQQKPGQPPKLLIYLASTLASGVPSRFSGSGSGTQFTLTISGVQCDDAATYYCLGGCDDDADTFAFGGGTEVVVKR

— patent US20210238304A1
